Laboratory results: publication PMC8983717, “Cryo-EM structures of a LptDE transporter in complex with Pro-macrobodies offer insight into lipopolysaccharide translocation” (Nature Communications, 2022)

What was measured:
[1] = molecular target: T1, N. gonorrhoeae LptD (1-801)-3C-His10 and LptE (1-159)-AVI complex, biotinylated (Neisseria gonorrhoeae ATCC 700825 / FA …, UniProt Q5F651;Q5F9V6, biotin on the AVI tag (in vitro, BirA)); experiment: grating-coupled interferometry (GCI); biotinylated NgLptDE immobilised on a 4PCP-S (streptavidin) chip at 600-700 pg/mm2; 20 °C; Tris 25 mM pH 7.5, NaCl 300 mM, DDM 0.1%; 8 concentrations (2-fold dilutions) in duplicate; 1:1 model; conditions: both partners purified
T1 construct: signal peptide in the construct; LptD of N. gonorrhoeae (Zopf) Trevisan (ATCC 700825), residues 1-801; LptE of N. gonorrhoeae (Zopf) Trevisan (ATCC 700825), residues 1-159; Used for sybody generation and GCI; also called biotinylated NgLptDE; Biotinylated protein; source: E. coli SF100, purified as the NgLptDE complex, biotinylated in vitro with BirA, second SEC; monomeric peak; not shown: AVI, …

[2] = molecular target: the molecule itself; experiment: cryo-EM structure; subset of 80,140 dimeric particles of the NgLptDE-PMb51-PMb21 sample; map at 5.27 Å; pseudo-2-fold symmetry

B1: sybody 51 (Sb51), synthetic nanobody against NgLptDE (VHH)
VHH: QVQLVESGGGSVQAGGSLRLSCAASGSISSITYLGWFRQAPGKEREGVAALATYYGHTYYADSVKGRFTVSLDNAKNTVYLQMNSLKPEDTALYYCAAAYSGIWTPLGVWATYEYWGQGTQVTV
notes: as the sybody moiety of m6 (PMb51), PDB 7OMM, up to the conserved C-terminus VTV
binding result [1]: binds

B2: Neisseria gonorrhoeae LptDE complex (NgLptDE), wild-type full-length LptD and LptE with a C-terminal hexa-histidine tag (complex, N. gonorrhoeae)
chain 1: ADTVAAEEADGRVAEGGAQGASESAQASDLTLGSTCLFCSNESGSPERTEAAVQGSGEASVPEDYTRIVADRMEGQSKVKVRAEGSVIIERDGAVLNTDWADYDQSGDTVTVGDRFALQQDGTLIRGETLTYNLDQQTGEAHNVRMETEQGGRRLQSVSRTAEMLGEGRYKLTETQFNTCSAGDAGWYVKAASVEADRGKGIGVAKHAAFVFGGVPLFYTPWADFPLDGNRKSGLLVPSVSAGSDGVSLSVPYYFNLAPNFDATFAPGIIGERGATFDGQIRYLRPDYSGQTDLTWLPHDKKSGRNNRYQAKWQHRHDISDTLQAGVDFNQVSDSGYYRDFYGGEEIAGNVNLNRRVWLDYGGRAAGGSLNAGLSVQKYQTLANQSGYKDEPYAIMPRLSADWHKNAGRAQIGVSAQFTRFSHDGRQDGSRLVVYPGIKWDFSNSWGYVRPKLGLHATYYSLDSFGGKASRSVGRVLPVVNIDGGTTFERNTRLFGGGVVQTIEPRLFYNYIPAKSQNDLPNFDSSESSFGYGQLFRENLYYGNDRINAANSLSTAVQSRILDGATGEERFRAGIGQKFYFKDDAVMLDGSVGKNPRSRSDWVAFASGGIGGRFTLDSSIHYNQNDKRAEHYAVGAGYRPAPGKVLNARYKYGRNEKIYLQADGSYFYDKLSQLDLSAQWPLTRNLSAVVRYNYGFEAKKPIEMLAGAEYKSSCGCWGAGVYAQRYVTGENTYKNAVFFSLQLKDLSSVGRNPAGRMDVAVPGYIPAHSLSAGRNKRP
chain 2: CGFHLKGADGISPPLTYRSWHIEGGQALQFPLETALYQASGRVDDAAGAQMTLRIDSVSQNKETYTVTRAAVINEYLLILTVEAQVLKRGEPVGKPMTVSVRRILDYADNEILGKQEEEETLWAEMRQDVAEQIVRRLTFLKAE
notes: LptD of N. gonorrhoeae, wild-type full length, UniProt Q5F651; LptE of N. gonorrhoeae, UniProt Q5F9V6; it is put on LptE here; Monomeric and dimeric SEC peaks were kept apart; the monomer was used for the complexes with PMbs; also called LptDE transporter; source: E. coli SF100, pBAD22A, purified from the outer-membrane fraction (LDAO, NiNTA, exchange to LMNG, SEC); also on E. coli SF100 cells …
stoichiometry N [2]: 2

B3: N. gonorrhoeae LptD (NgLptD), as the chain of the purified NgLptDE complex (natural protein, UniProt Q5F651 24-801, looked up)
chain: ADTVAAEEADGRVAEGGAQGASESAQASDLTLGSTCLFCSNESGSPERTEAAVQGSGEASVPEDYTRIVADRMEGQSKVKVRAEGSVIIERDGAVLNTDWADYDQSGDTVTVGDRFALQQDGTLIRGETLTYNLDQQTGEAHNVRMETEQGGRRLQSVSRTAEMLGEGRYKLTETQFNTCSAGDAGWYVKAASVEADRGKGIGVAKHAAFVFGGVPLFYTPWADFPLDGNRKSGLLVPSVSAGSDGVSLSVPYYFNLAPNFDATFAPGIIGERGATFDGQIRYLRPDYSGQTDLTWLPHDKKSGRNNRYQAKWQHRHDISDTLQAGVDFNQVSDSGYYRDFYGGEEIAGNVNLNRRVWLDYGGRAAGGSLNAGLSVQKYQTLANQSGYKDEPYAIMPRLSADWHKNAGRAQIGVSAQFTRFSHDGRQDGSRLVVYPGIKWDFSNSWGYVRPKLGLHATYYSLDSFGGKASRSVGRVLPVVNIDGGTTFERNTRLFGGGVVQTIEPRLFYNYIPAKSQNDLPNFDSSESSFGYGQLFRENLYYGNDRINAANSLSTAVQSRILDGATGEERFRAGIGQKFYFKDDAVMLDGSVGKNPRSRSDWVAFASGGIGGRFTLDSSIHYNQNDKRAEHYAVGAGYRPAPGKVLNARYKYGRNEKIYLQADGSYFYDKLSQLDLSAQWPLTRNLSAVVRYNYGFEAKKPIEMLAGAEYKSSCGCWGAGVYAQRYVTGENTYKNAVFFSLQLKDLSSVGRNPAGRMDVAVPGYIPAHSLSAGRNKRP
notes: LptD of N. gonorrhoeae, wild-type full length, UniProt Q5F651; The LptD chain of m1; source: E. coli SF100, co-expressed with LptE, purified as the NgLptDE complex (NiNTA, SEC, LMNG)
binding result [2]: binds
